In patent US20200216522A1 one finds ELISA signal data, which are given here for 1 substance.

In assay [1] the target is soluble Tau in control human brain lysate (human) (UniProt P10636). Kind of assay: ELISA on coated brain lysate, antibody 5 nM.
Assay [2] has as its target soluble Tau in Alzheimer's disease human brain lysate (human) (UniProt P10636). In words: ELISA on coated brain lysate, antibody 5 nM.
Assay [3] addresses soluble Tau in control human brain lysate (human) (UniProt P10636). Kind of assay: ELISA on coated brain lysate, antibody 0.5 nM.
The target in assay [4] is soluble Tau in Alzheimer's disease human brain lysate (human) (UniProt P10636). In words: ELISA on coated brain lysate, antibody 0.5 nM.
Chain of soluble Tau in Alzheimer's disease human brain lysate (human) (P10636 other isoform, or with tags, fused parts or gaps limits assumed): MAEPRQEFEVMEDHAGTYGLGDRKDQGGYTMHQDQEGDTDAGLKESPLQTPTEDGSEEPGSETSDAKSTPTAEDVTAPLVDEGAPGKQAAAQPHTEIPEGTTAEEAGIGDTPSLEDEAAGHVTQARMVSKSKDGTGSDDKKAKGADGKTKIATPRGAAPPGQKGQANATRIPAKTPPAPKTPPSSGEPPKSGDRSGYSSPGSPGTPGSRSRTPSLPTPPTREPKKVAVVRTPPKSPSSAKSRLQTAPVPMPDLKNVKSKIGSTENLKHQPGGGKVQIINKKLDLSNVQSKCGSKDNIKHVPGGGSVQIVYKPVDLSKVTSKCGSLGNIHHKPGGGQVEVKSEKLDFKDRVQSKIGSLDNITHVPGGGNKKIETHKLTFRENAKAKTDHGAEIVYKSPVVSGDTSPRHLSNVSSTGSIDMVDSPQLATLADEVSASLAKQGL

“And” between values parts separate entries of the source, which are not always exact repeats. Equal values may be shown once.

Chain of soluble Tau in control human brain lysate (human) (P10636 other isoform, or with tags, fused parts or gaps limits assumed): as above

Take anti-RSV antibody (negative control): the ELISA signal in assay [1] is 0.151 and 0.107 and 0.11; in assay [2], 0.108 and 0.107 and 0.117; in assay [3] it was 0.147 and 0.106 and 0.108; in assay [4], 0.108 and 0.117 and 0.115.
